Measured values from paper PMC5912162 (Bioconjugate chemistry, 2010).

Experiments:
in vivo [1] = settings: mouse, iv, 2 nmol, total radioactivity, Tissue distribution
KRAS2 G12D 20-mer RNA = settings: cited from earlier work
[2] = mouse, in vivo
[3] = tested on: human CAPAN2 (G12 V) pancreatic cancer xenografts; settings: mouse, in vivo
in vivo [4] = settings: mouse, iv, total radioactivity

Compound | tissue uptake at 24 h (in vivo [1]; blood) | tissue uptake at 24 h (in vivo [1]; heart) | tissue uptake at 24 h (in vivo [1]; intestine) | tissue uptake at 24 h (in vivo [1]; kidneys) | tissue uptake at 24 h (in vivo [1]; liver) | tissue uptake at 24 h (in vivo [1]; lungs) | tissue uptake at 24 h (in vivo [1]; muscle) | tissue uptake at 24 h (in vivo [1]; spleen) | tissue uptake at 24 h (in vivo [1]; tumor) | Tm (KRAS2 G12D 20-mer RNA) | Breakdown fragments in urine [2] | Free 111In (void volume peak) in urine, share of radioactivity [2] | Intact probe peak (eluting at 9 min) in urine, share of radioactivity [2] | Decrease of K/T ratio by added Gdn probes [3] | Decrease of kidney accumulation by added Gdn probes [3] | tissue to tissue ratio at 24 h (in vivo [4])
Cc1cn(CC(=O)N(CCNC(=O)CN(CCNC(=O)CN(CCNC(=O)CN(CCNC(=O)CN(CCNC(=O)CN(CCNC(=O)CN(CCNC(=O)CN(CCNC(=O)CN(CCNC(=O)CN(CCNC(=O)COCCOCCNC(=O)COCCOCCNC(=O)[C@H](CNC(=O)COCCOCCNC(=O)CN2CCN(CC(=O)O)CCN(CC(=O)O)CCN(CC(=O)O)CC2)NC(=O)COCCOCCNC(=O)CN2CCN(CC(=O)O)CCN(CC(=O)O)CCN(CC(=O)O)CC2)C(=O)Cn2cnc3c(=O)[nH]c(N)nc32)C(=O)Cn2ccc(N)nc2=O)C(=O)Cn2ccc(N)nc2=O)C(=O)Cn2cnc3c(N)ncnc32)C(=O)Cn2cc(C)c(=O)[nH]c2=O)C(=O)Cn2ccc(N)nc2=O)C(=O)Cn2cnc3c(N)ncnc32)C(=O)Cn2cnc3c(=O)[nH]c(N)nc32)C(=O)Cn2ccc(N)nc2=O)CC(=O)NCCN(CC(=O)NCCN(CC(=O)NCCOCCOCC(=O)N[C@@H]2CSSC[C@H](C(N)=O)NC(=O)[C@@H](CCCCN)NC(=O)[C@@H](CO)NC2=O)C(=O)Cn2ccc(N)nc2=O)C(=O)Cn2ccc(N)nc2=O)c(=O)[nH]c1=O [WT5195, (DOTA-AEEA)2-PDAP^1-AEEA2-GCCAtCAGCTCC-AEEA-D(Cys-Ser-Lys-Cys)] | 0.02 ± 0.01 %ID/g | 0.028 ± 0.008 %ID/g | 0.048 ± 0.007 %ID/g | 18.4 ± 1.89 %ID/g | 0.147 ± 0.015 %ID/g | 0.217 ± 0.257 %ID/g | 0.038 ± 0.007 %ID/g | 0.079 ± 0.006 %ID/g | 0.135 ± 0.034 %ID/g | 78.7 ± 0.6 °C | not detected | less than 1% | more than 99% | – | – | –
Cc1cn(CC(=O)N(CCNC(=O)CN(CCNC(=O)CN(CCNC(=O)CN(CCNC(=O)CN(CCNC(=O)CN(CCNC(=O)CN(CCNC(=O)CN(CCNC(=O)CN(CCNC(=O)CN(CCNC(=O)COCCOCCNC(=O)COCCOCCNC(=O)[C@H](CNC(=O)COCCOCCNC(=O)CN2CCN(CC(=O)O)CCN(CC(=O)O)CCN(CC(=O)O)CC2)NC(=O)COCCOCCNC(=O)CN2CCN(CC(=O)O)CCN(CC(=O)O)CCN(CC(=O)O)CC2)C(=O)Cn2cnc3c(=O)[nH]c(N)nc32)C(=O)Cn2ccc(N)nc2=O)C(=O)Cn2ccc(N)nc2=O)C(=O)Cn2cnc3c(N)ncnc32)C(=O)Cn2cnc3c(N)ncnc32)C(=O)Cn2ccc(N)nc2=O)C(=O)Cn2cnc3c(N)ncnc32)C(=O)Cn2cnc3c(=O)[nH]c(N)nc32)C(=O)Cn2ccc(N)nc2=O)CC(=O)NCCN(CC(=O)NCCN(CC(=O)NCCOCCOCC(=O)N[C@@H]2CSSC[C@H](C(N)=O)NC(=O)[C@@H](CCCCN)NC(=O)[C@@H](CO)NC2=O)C(=O)Cn2ccc(N)nc2=O)C(=O)Cn2ccc(N)nc2=O)c(=O)[nH]c1=O [WT5204, (DOTA-AEEA)2-PDAP^1-AEEA2-GCCAaCAGCTCC-AEEA-D(Cys-Ser-Lys-Cys)] | 0.049 ± 0.005 %ID/g | 0.042 ± 0.004 %ID/g | 0.079 ± 0.008 %ID/g | 19 ± 2.34 %ID/g | 0.248 ± 0.033 %ID/g | 0.093 ± 0.009 %ID/g | 0.046 ± 0.006 %ID/g | 0.105 ± 0.012 %ID/g | 0.144 ± 0.014 %ID/g | 68.0 ± 1.2 °C | – | – | – | – | – | –
Cc1cn(CC(=O)N(CCNC(=O)CN(CCNC(=O)CN(CCNC(=O)CN(CCNC(=O)CN(CCNC(=O)CN(CCNC(=O)CN(CCNC(=O)CN(CCNC(=O)CN(CCNC(=O)CN(CCNC(=O)COCCOCCNC(=O)COCCOCCNC(=O)[C@H](CNC(=O)[C@H](CNC(=O)[C@H](CNC(=O)COCCOCCNC(=O)CN2CCN(CC(=O)O)CCN(CC(=O)O)CCN(CC(=O)O)CC2)NC(=O)COCCOCCNC(=O)CN2CCN(CC(=O)O)CCN(CC(=O)O)CCN(CC(=O)O)CC2)NC(=O)[C@H](CNC(=O)COCCOCCNC(=O)CN2CCN(CC(=O)O)CCN(CC(=O)O)CCN(CC(=O)O)CC2)NC(=O)COCCOCCNC(=O)CN2CCN(CC(=O)O)CCN(CC(=O)O)CCN(CC(=O)O)CC2)NC(=O)[C@H](CNC(=O)[C@H](CNC(=O)COCCOCCNC(=O)CN2CCN(CC(=O)O)CCN(CC(=O)O)CCN(CC(=O)O)CC2)NC(=O)COCCOCCNC(=O)CN2CCN(CC(=O)O)CCN(CC(=O)O)CCN(CC(=O)O)CC2)NC(=O)[C@H](CNC(=O)COCCOCCNC(=O)CN2CCN(CC(=O)O)CCN(CC(=O)O)CCN(CC(=O)O)CC2)NC(=O)COCCOCCNC(=O)CN2CCN(CC(=O)O)CCN(CC(=O)O)CCN(CC(=O)O)CC2)C(=O)Cn2cnc3c(=O)[nH]c(N)nc32)C(=O)Cn2ccc(N)nc2=O)C(=O)Cn2ccc(N)nc2=O)C(=O)Cn2cnc3c(N)ncnc32)C(=O)Cn2cc(C)c(=O)[nH]c2=O)C(=O)Cn2ccc(N)nc2=O)C(=O)Cn2cnc3c(N)ncnc32)C(=O)Cn2cnc3c(=O)[nH]c(N)nc32)C(=O)Cn2ccc(N)nc2=O)CC(=O)NCCN(CC(=O)NCCN(CC(=O)NCCOCCOCC(=O)N[C@@H]2CSSC[C@H](C(N)=O)NC(=O)[C@@H](CCCCN)NC(=O)[C@@H](CO)NC2=O)C(=O)Cn2ccc(N)nc2=O)C(=O)Cn2ccc(N)nc2=O)c(=O)[nH]c1=O [WT8900, (DOTA-AEEA)8-PDAP^3-AEEA2-GCCAtCAGCTCC-AEEA-D(Cys-Ser-Lys-Cys)] | 0.018 ± 0.001 %ID/g | 0.035 ± 0.005 %ID/g | 0.048 ± 0.004 %ID/g | 29.6 ± 9.21 %ID/g | 0.152 ± 0.012 %ID/g | 0.096 ± 0.021 %ID/g | 0.04 ± 0.01 %ID/g | 0.075 ± 0.005 %ID/g | 0.143 ± 0.011 %ID/g | 75.9 ± 0.5 °C | – | – | – | – | – | –
Cc1cn(CC(=O)N(CCNC(=O)CN(CCNC(=O)CN(CCNC(=O)CN(CCNC(=O)CN(CCNC(=O)CN(CCNC(=O)CN(CCNC(=O)CN(CCNC(=O)CN(CCNC(=O)CN(CCNC(=O)COCCOCCNC(=O)COCCOCCNC(=O)[C@H](CNC(=O)[C@H](CNC(=O)[C@H](CNC(=O)COCCOCCNC(=O)CN2CCN(CC(=O)O)CCN(CC(=O)O)CCN(CC(=O)O)CC2)NC(=O)COCCOCCNC(=O)CN2CCN(CC(=O)O)CCN(CC(=O)O)CCN(CC(=O)O)CC2)NC(=O)[C@H](CNC(=O)COCCOCCNC(=O)CN2CCN(CC(=O)O)CCN(CC(=O)O)CCN(CC(=O)O)CC2)NC(=O)COCCOCCNC(=O)CN2CCN(CC(=O)O)CCN(CC(=O)O)CCN(CC(=O)O)CC2)NC(=O)[C@H](CNC(=O)[C@H](CNC(=O)COCCOCCNC(=O)CN2CCN(CC(=O)O)CCN(CC(=O)O)CCN(CC(=O)O)CC2)NC(=O)COCCOCCNC(=O)CN2CCN(CC(=O)O)CCN(CC(=O)O)CCN(CC(=O)O)CC2)NC(=O)[C@H](CNC(=O)COCCOCCNC(=O)CN2CCN(CC(=O)O)CCN(CC(=O)O)CCN(CC(=O)O)CC2)NC(=O)COCCOCCNC(=O)CN2CCN(CC(=O)O)CCN(CC(=O)O)CCN(CC(=O)O)CC2)C(=O)Cn2cnc3c(=O)[nH]c(N)nc32)C(=O)Cn2ccc(N)nc2=O)C(=O)Cn2ccc(N)nc2=O)C(=O)Cn2cnc3c(N)ncnc32)C(=O)Cn2cnc3c(N)ncnc32)C(=O)Cn2ccc(N)nc2=O)C(=O)Cn2cnc3c(N)ncnc32)C(=O)Cn2cnc3c(=O)[nH]c(N)nc32)C(=O)Cn2ccc(N)nc2=O)CC(=O)NCCN(CC(=O)NCCN(CC(=O)NCCOCCOCC(=O)N[C@@H]2CSSC[C@H](C(N)=O)NC(=O)[C@@H](CCCCN)NC(=O)[C@@H](CO)NC2=O)C(=O)Cn2ccc(N)nc2=O)C(=O)Cn2ccc(N)nc2=O)c(=O)[nH]c1=O [WT8910, (DOTA-AEEA)8-PDAP^3-AEEA2-GCCAaCAGCTCC-AEEA-D(Cys-Ser-Lys-Cys)] | 0.012 ± 0.002 %ID/g | 0.037 ± 0.006 %ID/g | 0.043 ± 0.006 %ID/g | 13.9 ± 2.11 %ID/g | 0.104 ± 0.015 %ID/g | 0.207 ± 0.031 %ID/g | 0.03 ± 0.004 %ID/g | 0.056 ± 0.009 %ID/g | 0.113 ± 0.014 %ID/g | 66.9 ± 0.5 °C | – | – | – | more than 5 fold | 2 fold | 6.5 ± 1
(Gd-DOTA-AEEA)2-PDAP^1-AEEA2-GCCAaCAGCTCC-AEEA-D(Cys-Ser-Lys-Cys) (disulfide) [WT5512] | – | – | – | – | – | – | – | – | – | 68.0 ± 1.0 °C | – | – | – | – | – | –
(Gd-DOTA-AEEA)8-PDAP^3-AEEA2-GCCAaCAGCTCC-AEEA-D(Cys-Ser-Lys-Cys) (disulfide) [WT10144] | – | – | – | – | – | – | – | – | – | 66.8 ± 0.9 °C | – | – | – | – | – | –
